Test results reported in article PMC4505066 (2015).

B1: wild type GSI motif peptide (CPRPLKEGSITQGTPLKYDTG), SMRT amino acids 1450-1469 with an amino-terminal cysteine [modified: BODIPY-TMR coupled to the N-terminal cysteine; BODIPY-TMR coupled to the N-terminal cysteine] [not stated] / HDAC4 … (parent complex)
chain 1: CPRPLKEGSITQGTPLKYDTG
chain 2: TKPRFTTGLVYDTLMLKHQCTCGSSSSHPEHAGRIQSIWSRLQETGLRGKCECIRGRKATLEELQTVHSEAHTLLYGTNPLNRQKLDSKKLLGSLASVFVRLPCGGVGVDSDTIWNEVHSAGAARLAVGCVVELVFKVATGELKNGFAVVRPPGHHAEESTPMGFCYFNSVAVAAKLLQQRLSVSKILIVDWDVHHGNGTQQAFYSDPSVLYMSLHRYDDGNFFPGSGAPDEVGTGPGVGFNVNMAFTGGLDPPMGDAEYLAAFRTVVMPIASEFAPDVVLVSSGFDAVEGHPTPLGGYNLSARCFGYLTKQLMGLAGGRIVLALEGGHDLTAICDASEACVSALLGNELDPLPEKVLQQRPNANAVRSMEKVMEIHSKYWRCLQRTTSTAGRSLIEAQTCENEEAETVT

Variants of: B1
Assay: fluorescence anisotropy

Variant | Kd
chain 1 CPRPLKEGSIVQGTPLKYDTG [chain 1 T11V] | 16.9 µM
chain 1 CPRPLKEGSITEGTPLKYDTG [chain 1 Q12E] | 17.7 µM

The remaining lines, values ahead:

Kd | Variant
47 µM | chain 1 CPRPLKEGSITQGTALKYDTG [chain 1 P15A]
14.4 µM | chain 1 CPRPLKEGSIAQGTPLKYDTG [chain 1 T11A]
5.47 µM | chain 1 CPRPLKEGSITAGTPLKYDTG [chain 1 Q12A]
